In patent EP4810513A1 (Genexine, Inc., dated 2026):

Columns and labels:
[1] = biological target: huSOX2.V5 (huSOX2 with a V5-tag at the C-terminus) (human, UniProt P48431 1-317); assay: cell-based or functional assay
[2] = biological target: T1, human SRY-box transcription factor 2 (huSOX2) with C-terminal 6×His-tag, produced by Biointron (human, UniProt P48431 1-317); assay: 96-well ELISA screening of individual colonies, 20 ug/mL huSOX2
T1 construct: also called huSOX2 protein; biotinylated huSOX2 (Biointron)
T1 sequence (P48431 other isoform, or with tags, fused parts or gaps limits assumed): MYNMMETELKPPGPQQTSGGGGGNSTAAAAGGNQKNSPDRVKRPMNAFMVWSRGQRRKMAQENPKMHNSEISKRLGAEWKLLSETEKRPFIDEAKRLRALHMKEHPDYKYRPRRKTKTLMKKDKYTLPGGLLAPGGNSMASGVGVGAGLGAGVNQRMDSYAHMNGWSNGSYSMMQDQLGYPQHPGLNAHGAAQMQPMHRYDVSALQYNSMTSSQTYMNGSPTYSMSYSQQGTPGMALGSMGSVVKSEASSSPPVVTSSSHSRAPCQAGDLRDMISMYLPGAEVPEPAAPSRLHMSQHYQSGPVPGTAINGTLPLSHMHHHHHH

[3] = biological target: T2, huSOX2 protein with N-terminal Halo tag (pHTN vector), expressed in HEK293T cells (human, UniProt P48431 1-317, HaloTag 618 ligand bound to the Halo tag); assay: NanoBRET in HEK293T cells, NanoLuc-VHH and Halo-huSOX2
T2 construct: Expressed inside HEK293T cells (NanoBRET); not shown: Halo tag
T2 sequence (P48431 whole entry): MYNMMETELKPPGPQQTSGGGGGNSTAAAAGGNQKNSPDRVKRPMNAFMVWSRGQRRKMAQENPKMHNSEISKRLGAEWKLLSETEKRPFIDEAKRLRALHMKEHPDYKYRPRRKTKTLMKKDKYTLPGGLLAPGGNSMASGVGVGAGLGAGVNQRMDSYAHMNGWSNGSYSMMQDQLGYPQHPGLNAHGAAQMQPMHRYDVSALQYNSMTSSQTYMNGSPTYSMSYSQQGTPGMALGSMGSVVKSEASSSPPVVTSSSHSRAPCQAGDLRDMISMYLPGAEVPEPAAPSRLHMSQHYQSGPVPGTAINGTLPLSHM

[4] = biological target: CynoSOX2 with C-terminal 6×His-tag, produced by Biointron (cyno, UniProt P48431 45-317 (human entry), limits assumed); assay: selection from a naive sdAb phage display library, three rounds of panning
CynoSOX2 with C-terminal 6×His-tag, produced by Biointron, sequence (P48431 other isoform, or with tags, fused parts or gaps limits assumed): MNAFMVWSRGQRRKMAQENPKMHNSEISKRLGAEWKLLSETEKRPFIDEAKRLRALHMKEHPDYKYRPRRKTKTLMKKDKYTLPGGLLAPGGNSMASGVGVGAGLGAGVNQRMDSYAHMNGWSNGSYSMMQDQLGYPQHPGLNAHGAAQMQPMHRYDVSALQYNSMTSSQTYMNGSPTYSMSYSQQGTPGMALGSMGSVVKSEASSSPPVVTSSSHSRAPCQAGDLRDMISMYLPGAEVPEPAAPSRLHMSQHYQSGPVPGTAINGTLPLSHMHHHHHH

[5] = biological target: T1, human SRY-box transcription factor 2 …; assay: as above
[6] = biological target: T3, huSOX3 with C-terminal 6×His-tag, produced by Biointron (human, UniProt P41225 1-446); assay: as above
T3 sequence: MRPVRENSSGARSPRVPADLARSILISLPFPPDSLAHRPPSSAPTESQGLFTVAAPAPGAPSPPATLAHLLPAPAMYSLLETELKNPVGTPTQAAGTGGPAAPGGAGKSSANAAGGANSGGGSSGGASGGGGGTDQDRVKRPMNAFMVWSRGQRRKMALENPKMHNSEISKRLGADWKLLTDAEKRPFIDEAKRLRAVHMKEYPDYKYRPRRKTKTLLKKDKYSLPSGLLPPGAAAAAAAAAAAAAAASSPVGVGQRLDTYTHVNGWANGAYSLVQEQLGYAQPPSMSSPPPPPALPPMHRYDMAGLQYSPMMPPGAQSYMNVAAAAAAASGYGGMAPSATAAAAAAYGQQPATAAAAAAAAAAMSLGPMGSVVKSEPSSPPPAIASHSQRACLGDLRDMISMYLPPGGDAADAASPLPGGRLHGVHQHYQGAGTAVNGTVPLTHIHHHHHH

huSOX2.V5 (huSOX2 with a V5-tag at the C-terminus), sequence (P48431 other isoform, or with tags, fused parts or gaps): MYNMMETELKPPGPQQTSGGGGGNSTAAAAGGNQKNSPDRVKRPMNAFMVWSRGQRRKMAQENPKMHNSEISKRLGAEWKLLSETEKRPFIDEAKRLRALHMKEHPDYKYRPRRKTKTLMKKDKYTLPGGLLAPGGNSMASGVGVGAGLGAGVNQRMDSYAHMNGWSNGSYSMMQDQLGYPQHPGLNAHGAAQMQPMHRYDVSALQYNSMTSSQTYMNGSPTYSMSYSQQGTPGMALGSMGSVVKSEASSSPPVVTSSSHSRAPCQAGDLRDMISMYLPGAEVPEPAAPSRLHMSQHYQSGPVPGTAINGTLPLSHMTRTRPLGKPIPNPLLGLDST

B1: 3A2.005 (Flag-tag - 3A2 - GS linker - SPOP 167-374) (other)
chain: DYKDDDDKTREVQLVESGGEQVQPGSSLKLSCSVSGLMISGHAMSWVRQVPGAGPEWVAVDNPGGKKNYIDSVAGRFTIARDNDANSLSLVMNGLRPEDTARYFCARVLSFKIYEGDKWALEWDYRGPGTQVTVSSGSSVNISGQNTMNMVKVPECRLADELGGLWENSRFTDCCLCVAGQEFQAHKAILAARSPVFSAMFEHEMEESKKNRVEINDVEPEVFKEMMCFIYTGKAPNLDKMADDLLAAADKYALERLKVMCEDALCSNLSVENAAEILILADLHSADQLKTQAVDFINYHASDVLETSGWKSMVVSHPHLVAEAYRSLASAQCPFLGPPRKRLKQS
Q: Which “SOX2 degradation capability compared to the control group (Mock) (HEK-293 cells)” value [1] does the source give for B1 here?
A: ≥ 70%

B2: 1C2 (anti-huSOX2 VHH antibody clone) (VHH)
VHH: EVQLVESGGGLVQPGGSLRLSCAASGSTYTTYSMGWFRQAPGKEREFVAAIRWSGGTTYYADSVKGRFTISADNSKNTAYLQMNSLKPEDTAVYYCASRVDDRVWGQGTLVTVSS
notes: Clone from the VHH phage library panning; tested as individual colony in ELISA screening
Q: Does B2 bind [2]?
A: binds

B3: 1A9 (anti-huSOX2 VHH antibody clone) (VHH)
VHH: EVQLVESGGGLVQPGGSLRLSCAASGRTFSTYSMGWFRQAPGKEREFVAAIRWTAGTTYYADSVKGRFTISADNSKNTAYLQMNSLKPEDTAVYYCASRVDDRVWGQGTLVTVSS
notes: as for B2
Q: Does B3 bind [2]?
A: binds

B4: 1C12 (anti-huSOX2 VHH antibody clone) (VHH)
VHH: EVQLVESGGGLVQPGGSLRLSCAASGSTYTTYSMGWFRQAPGKEREFVAAIRWSGGSTHYADSVKGRFTISADNSKNTAYLQMNSLKPEDTAVYYCASRVDDRVWGQGTLVTVSS
notes: as for B2
Q: Does B4 bind [2]?
A: binds

B5: 1A5 (anti-huSOX2 VHH antibody clone) (VHH)
VHH: EVQLVESGGGLVQPGGSLRLSCAASGSTYTTYSMGWFRQAPGKEREFVGAIHWSGGRTYYADSVKGRFTISADNSKNTAYLQMNSLKPEDTAVYYCASRVDDRVWGQGTLVTVSS
notes: as for B2
Q: Does B5 bind [2]?
A: binds

B6: 1A11 (anti-huSOX2 VHH antibody clone) (VHH)
VHH: EVQLVESGGGLVQPGGSLRLSCAASGSTYTTYSMGWFRQAPGKEREFVAAIHWSGGGTYYADSVKGRFTISADNSKNTAYLQMNSLKPEDTAVYYCASRVDDRVWGQGTLVTVSS
notes: as for B2
Q: Does B6 bind [2]?
A: binds

B7: 1C11 (anti-huSOX2 VHH antibody clone) (VHH)
VHH: EVQLVESGGGLVQPGGSLRLSCAASGSTYTTYSMGWFRQAPGKEREFVGAIRWSGGTTYYADSVKGRFTISADNSKNTAYLQMNSLKPEDTAVYYCASRVDDRVWGQGTLVTVSS
notes: as for B2
Q: Does B7 bind [2]?
A: binds

B8: 3H9 with N-terminal NanoLuc tag (pNLF1-N-3H9), expressed in HEK293T cells (VHH)
VHH: QVQLVESGGEQVQPGSSLKLSCSVSGLMISGHAMSWVRQVPGAGPEWVAVDNPGGKKNYIDSVAGRFTIARDNDANSLSLVMNGLRPEDTARYFCARVLSFKIYGGDKWALEWDYRGPGTQVTVSS
notes: NanoBRET donor construct; not shown: NanoLuc tag
Q: Does B8 bind [3]?
A: binds

B9: 3F11 (anti-huSOX2 VHH antibody) (VHH)
VHH: DVQLVESGGGLVQPGGSLRLSCATSGFTFSSSTMSWVRQVPGAGPEWVAVDNPGGKKNYIDSVAGRFTIARDNDANSLSLVMNGLRPEDTARYFCARVLSFKIYEGDKWALEWDYRGPGTQVTVSS
notes: Selected from a naive sdAb phage display library (Genscript Probio)
Q: Which results are given for B9?
A: binding result [4]: binds; binding result [5]: binds; binding result [6]: no binding

B10: 3F11 with N-terminal NanoLuc tag (pNLF1-N-3F11), expressed in HEK293T cells (VHH)
VHH: DVQLVESGGGLVQPGGSLRLSCATSGFTFSSSTMSWVRQVPGAGPEWVAVDNPGGKKNYIDSVAGRFTIARDNDANSLSLVMNGLRPEDTARYFCARVLSFKIYEGDKWALEWDYRGPGTQVTVSS
notes: as for B8
Q: Does B10 bind [3]?
A: binds

B11: 2E8 (anti-huSOX2 VHH antibody clone) (VHH)
VHH: EVQLVESGGGLVQPGGSLRLSCAASGFTLDYYGMGWFRQAPGKEREFVAAISRSGGSTVYADSVKGRFTISADNSKNTAYLQMNSLKPEDTAVYYCAREVVRGGINYWGQGTLVTVSS
notes: as for B2
Q: Does B11 bind [2]?
A: binds

B12: 2E8 with N-terminal NanoLuc tag (pNLF1-N-2E8), expressed in HEK293T cells (VHH)
VHH: EVQLVESGGGLVQPGGSLRLSCAASGFTLDYYGMGWFRQAPGKEREFVAAISRSGGSTVYADSVKGRFTISADNSKNTAYLQMNSLKPEDTAVYYCAREVVRGGINYWGQGTLVTVSS
notes: as for B8
Q: Does B12 bind [3]?
A: binds

B13: 3A2.011 (Flag-tag - TRIM21 2-85 - GS linker - 3A2) (other)
chain: DYKDDDDKTRASAARLTMMWEEVTCPICLDPFVEPVSIECGHSFCQECISQVGKGGGSVCPVCRQRFLLKNLRPNRQLANMVNNLKEISQEAREGSEVQLVESGGEQVQPGSSLKLSCSVSGLMISGHAMSWVRQVPGAGPEWVAVDNPGGKKNYIDSVAGRFTIARDNDANSLSLVMNGLRPEDTARYFCARVLSFKIYEGDKWALEWDYRGPGTQVTVSS
Q: For B13, which “SOX2 degradation capability compared to the control group (Mock) (HEK-293 cells)” value [1] is on record?
A: ≥ 70%

B14: 1B9 (anti-huSOX2 VHH antibody clone) (VHH)
VHH: EVQLVESGGGLVQPGGSLRLSCAASGLTFSTYSMGWFRQAPGKEREFVAAITWNSGRRTYYADSVKGRFTISADNSKNTAYLQMNSLKPEDTAVYYCASRVDDRVWGQGTLVTVSS
notes: as for B2
Q: Does B14 bind [2]?
A: binds

B15: 3A2.007 (Flag-tag - 3A2 - GS linker - CHIP 128-303) (other)
chain: DYKDDDDKTREVQLVESGGEQVQPGSSLKLSCSVSGLMISGHAMSWVRQVPGAGPEWVAVDNPGGKKNYIDSVAGRFTIARDNDANSLSLVMNGLRPEDTARYFCARVLSFKIYEGDKWALEWDYRGPGTQVTVSSGSRLNFGDDIPSALRIAKKKRWNSIEERRIHQESELHSYLSRLIAAERERELEECQRNHEGDEDDSHVRAQQACIEAKHDKYMADMDELFSQVDEKRKKRDIPDYLCGKISFELMREPCITPSGITYDRKDIEEHLQRVGHFDPVTRSPLTQEQLIPNLAMKEVIDAFISENGWVEDY
Q: B15 was tested. Which “SOX2 degradation capability compared to the control group (Mock) (HEK-293 cells)” value [1] did it give?
A: ≥ 70%

B16: 1C4 (anti-huSOX2 VHH antibody clone) (VHH)
VHH: EVQLVESGGGLVQPGGSLRLSCAASGGGFRGNAVMGWFRQAPGKERELVAAIRGSGEDTYYADSVKGRFTISADNSKNTAYLQMNSLKPEDTAVYYCAGGWRRGYFQDWGQGTLVTVSS
notes: as for B2
Q: Does B16 bind [2]?
A: binds

B17: 3A2.012 (Flag-tag - 3A2 - GS linker - RNF4 71-190) (other)
chain: DYKDDDDKTREVQLVESGGEQVQPGSSLKLSCSVSGLMISGHAMSWVRQVPGAGPEWVAVDNPGGKKNYIDSVAGRFTIARDNDANSLSLVMNGLRPEDTARYFCARVLSFKIYEGDKWALEWDYRGPGTQVTVSSGSDERRRPRRNARRLPQDHADSCVVSSDDEELSRDRDVYVTTHTPRNARDEGATGLRPSGTVSCPICMDGYSEIVQNGRLIVSTECGHVFCSQCLRDSLKNANTCPTCRKKINHKRYHPIYI
Q: For B17, which “SOX2 degradation capability compared to the control group (Mock) (HEK-293 cells)” value [1] is on record?
A: ≥ 70%
